According to paper PMC5313200:

Target: mitochondrial antiviral signaling protein (MAVS), from pCMV-FLAG-MAVS (UniProt Q8VCF0)
Assay: co-immunoprecipitation with quantitative western blot
Settings: 293T cells co-transfected with MAVS and viperin mutant; at least 3 independent experiments; parent: est. 100; read off a plot

Substance | percent of parent
viperin (Virus Inhibitory Protein, Endoplasmic Reticulum-associated, interferon-inducible), wild type, from pcDNA3.1-viperin (from UniProt Q8CBB9) C84A | 93 % WT
viperin (Virus Inhibitory Protein, Endoplasmic Reticulum-associated, interferon-inducible), wild type, from pcDNA3.1-viperin (from UniProt Q8CBB9) F90A | 160 % WT
viperin (Virus Inhibitory Protein, Endoplasmic Reticulum-associated, interferon-inducible), wild type, from pcDNA3.1-viperin (from UniProt Q8CBB9) G117A | 20 % WT
viperin (Virus Inhibitory Protein, Endoplasmic Reticulum-associated, interferon-inducible), wild type, from pcDNA3.1-viperin (from UniProt Q8CBB9) H79A | 140 % WT
viperin (Virus Inhibitory Protein, Endoplasmic Reticulum-associated, interferon-inducible), wild type, from pcDNA3.1-viperin (from UniProt Q8CBB9) H93A | 90 % WT
viperin (Virus Inhibitory Protein, Endoplasmic Reticulum-associated, interferon-inducible), wild type, from pcDNA3.1-viperin (from UniProt Q8CBB9) K96A | 81 % WT
viperin (Virus Inhibitory Protein, Endoplasmic Reticulum-associated, interferon-inducible), wild type, from pcDNA3.1-viperin (from UniProt Q8CBB9) K120A | 12 % WT
viperin (Virus Inhibitory Protein, Endoplasmic Reticulum-associated, interferon-inducible), wild type, from pcDNA3.1-viperin (from UniProt Q8CBB9) N77A | 83 % WT
viperin (Virus Inhibitory Protein, Endoplasmic Reticulum-associated, interferon-inducible), wild type, from pcDNA3.1-viperin (from UniProt Q8CBB9) N85A | 100 % WT
viperin (Virus Inhibitory Protein, Endoplasmic Reticulum-associated, interferon-inducible), wild type, from pcDNA3.1-viperin (from UniProt Q8CBB9) P73A | 220 % WT
viperin (Virus Inhibitory Protein, Endoplasmic Reticulum-associated, interferon-inducible), wild type, from pcDNA3.1-viperin (from UniProt Q8CBB9) R82A | 66 % WT
viperin (Virus Inhibitory Protein, Endoplasmic Reticulum-associated, interferon-inducible), wild type, from pcDNA3.1-viperin (from UniProt Q8CBB9) S75A | 57 % WT
viperin (Virus Inhibitory Protein, Endoplasmic Reticulum-associated, interferon-inducible), wild type, from pcDNA3.1-viperin (from UniProt Q8CBB9) T81A | 240 % WT
viperin (Virus Inhibitory Protein, Endoplasmic Reticulum-associated, interferon-inducible), wild type, from pcDNA3.1-viperin (from UniProt Q8CBB9) T94A | 30 % WT
viperin (Virus Inhibitory Protein, Endoplasmic Reticulum-associated, interferon-inducible), wild type, from pcDNA3.1-viperin (from UniProt Q8CBB9) T97A | 45 % WT
viperin (Virus Inhibitory Protein, Endoplasmic Reticulum-associated, interferon-inducible), wild type, from pcDNA3.1-viperin (from UniProt Q8CBB9) Y86A | 120 % WT
